Assay results taken from the supplement of paper PMC10724198.
± gives the standard deviation of the averaged measurements.

Legend:
Saccharomyces cerevisiae [1] = assay: protein stability index of tFT-peptide fusion (C-terminal peptide) (PSI (0-1 scale)); higher = more stable (slower turnover)
Description: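 MPS profiling in S. cerevisiae of the tFT-X12 degron library: putative degron peptides plus stable controls, 12 aa, fused to the C-terminus of a sfGFP-mCherry timer. Cells are FACS-sorted into 8 mCherry/sfGFP bins and deep-sequenced. PSI runs from 0 (unstable) to 1 (stable). Backgrounds are wild type, das1Δ and doa10Δ at 30 °C, and wild type, das1Δ, cdc34-1 and cdc53-1 at 37 °C; 2-3 technical replicates each.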

Saccharomyces cerevisiae [2] = assay: as above; conditions: genetic background: wild type; temperature: 30 C
[3] = genetic background: cdc34-1, temperature: 37 C
[4] = genetic background: cdc53-1, temperature: 37 C
[5] = genetic background: das1 deletion, temperature: 30 C
[6] = genetic background: das1 deletion, temperature: 37 C
[7] = genetic background: doa10 deletion, temperature: 30 C
[8] = genetic background: wild type, temperature: 30 C
[9] = genetic background: wild type, temperature: 37 C
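Note: PSI is a weighted mean of sequencing reads over stability bins, variants kept only with over 10 reads, mCherry proximal and sfGFP distal, peptide attached via GGGS linker.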

Sequence | protein stability index (Saccharomyces cerevisiae [1]; [3]) | protein stability index (Saccharomyces cerevisiae [1]; [4]) | protein stability index (Saccharomyces cerevisiae [1]; [5]) | protein stability index (Saccharomyces cerevisiae [1]; [6]) | protein stability index (Saccharomyces cerevisiae [1]; [7]) | protein stability index (Saccharomyces cerevisiae [1]; [8]) | protein stability index (Saccharomyces cerevisiae [1]; [9]) | protein stability index (Saccharomyces cerevisiae [2])
RVLCLVSSLTLF | 0.549 ± 0.013 | 0.592 ± 0.0061 | 0.413 ± 0.027 | 0.612 ± 0.017 | 0.352 ± 0.0058 | 0.388 ± 0.026 | 0.5961 ± 0.00089 | 0.441 ± 0.0073
VCVARICIWDFL | 0.505 ± 0.043 | 0.589 ± 0.027 | 0.446 ± 0.035 | 0.594 ± 0.014 | 0.413 ± 0.0074 | 0.438 ± 0.013 | 0.596 ± 0.0092 | 0.51 ± 0.033
FHLFIRRSAVIF | 0.493 ± 0.023 | 0.576 ± 0.0062 | 0.455 ± 0.017 | 0.555 ± 0.023 | 0.3488 ± 0.0019 | 0.351 ± 0.033 | 0.458 ± 0.0063 | 0.439 ± 0.025
LSACYSRYVFVS | 0.398 ± 0.039 | 0.553 ± 0.038 | 0.472 ± 0.016 | 0.60517 ± 0.00057 | 0.0584 ± 0.017 | 0.093 ± 0.023 | 0.115 ± 0.012 | 0.135 ± 0.0089
WVSFFILYCVYR | 0.274 ± 0.016 | 0.345 ± 0.024 | 0.253 ± 0.04 | 0.445 ± 0.017 | 0.23 ± 0.0055 | 0.237 ± 0.018 | 0.378 ± 0.011 | 0.232 ± 0.03
AFVVPLFLCCCG | 0.1836 ± 0.0015 | 0.165 ± 0.013 | 0.212 ± 0.025 | 0.2768 ± 0.0025 | 0.184 ± 0.014 | 0.209 ± 0.014 | 0.235 ± 0.0042 | 0.255 ± 0.0048
VAVFFFCRVFFL | 0.248 ± 0.062 | 0.339 ± 0.005 | 0.221 ± 0.037 | 0.412 ± 0.0042 | 0.186 ± 0.02 | 0.211 ± 0.024 | 0.318 ± 0.04 | 0.289 ± 0.026
WALWGFVFWDWW | 0.402 ± 0.049 | 0.476 ± 0.016 | 0.377 ± 0.035 | 0.5133 ± 0.0029 | 0.3786 ± 0.0011 | 0.365 ± 0.023 | 0.501 ± 0.0078 | 0.497 ± 0.03
FSFSFWALLWFP | 0.495 ± 0.029 | 0.54 ± 0.017 | 0.438 ± 0.022 | 0.531 ± 0.0093 | 0.48 ± 0.031 | 0.429 ± 0.02 | 0.537 ± 0.02 | 0.466 ± 0.0093
VSLLVFVVSSRV | 0.345 ± 0.034 | 0.418 ± 0.0047 | 0.262 ± 0.031 | 0.476 ± 0.016 | 0.223 ± 0.0068 | 0.255 ± 0.022 | 0.444 ± 0.013 | 0.3816 ± 0.0022
GIGYMFLNVWLV | 0.234 ± 0.036 | 0.302 ± 0.0072 | 0.246 ± 0.024 | 0.4208 ± 0.00089 | 0.0963 ± 0.011 | 0.0848 ± 0.015 | 0.122 ± 0.017 | 0.153 ± 0.022
STLPACNCLKLL | 0.663 ± 0.015 | 0.7607 ± 0.0055 | 0.622 ± 0.011 | 0.741 ± 0.013 | 0.332 ± 0.015 | 0.371 ± 0.03 | 0.565 ± 0.015 | 0.426 ± 0.069
HHACLLPVRKAG | 0.636 ± 0.056 | 0.752 ± 0.012 | 0.6526 ± 0.00091 | 0.744 ± 0.0085 | 0.154 ± 0.007 | 0.187 ± 0.0086 | 0.404 ± 0.024 | 0.277 ± 0.027
VCSCLVLVFCCC | 0.232 ± 0.018 | 0.222 ± 0.018 | 0.232 ± 0.036 | 0.318 ± 0.0068 | 0.207 ± 0.025 | 0.237 ± 0.015 | 0.285 ± 0.024 | 0.298 ± 0.037
SNFDVRRLLVIQ | 0.616 ± 0.073 | 0.702 ± 0.038 | 0.588 ± 0.021 | 0.697 ± 0.0065 | 0.29 ± 0.0061 | 0.329 ± 0.039 | 0.54 ± 0.014 | 0.455 ± 0.033
FSLSLFPYPFSL | 0.698 ± 0.022 | 0.764 ± 0.045 | 0.686 ± 0.02 | 0.765 ± 0.011 | 0.686 ± 0.01 | 0.672 ± 0.021 | 0.755 ± 0.018 | 0.755 ± 0.03
LCLICLFLLKVL | 0.477 ± 0.049 | 0.548 ± 0.048 | 0.395 ± 0.03 | 0.586 ± 0.0076 | 0.18 ± 0.018 | 0.201 ± 0.032 | 0.299 ± 0.017 | 0.337 ± 0.022
KCVVMFFLRSVS | 0.636 ± 0.024 | 0.6956 ± 0.0065 | 0.529 ± 0.037 | 0.676 ± 0.022 | 0.396 ± 0.012 | 0.412 ± 0.011 | 0.598 ± 0.011 | 0.5 ± 0.026
RIHRRLIKNKRV | 0.649 ± 0.021 | 0.7 ± 0.02 | 0.71 ± 0.036 | 0.739 ± 0.041 | 0.155 ± 0.028 | 0.156 ± 0.038 | 0.377 ± 0.023 | 0.162 ± 0.086
LVLLIQKFLTDK | 0.7442 ± 0.0063 | 0.7187 ± 0.0016 | 0.609 ± 0.024 | 0.695 ± 0.079 | 0.59 ± 0.017 | 0.617 ± 0.052 | 0.675 ± 0.015 | 0.553 ± 0.086

Sequence | protein stability index (Saccharomyces cerevisiae [1]; [3]) | protein stability index (Saccharomyces cerevisiae [1]; [4]) | protein stability index (Saccharomyces cerevisiae [1]; [5]) | protein stability index (Saccharomyces cerevisiae [1]; [6]) | protein stability index (Saccharomyces cerevisiae [1]; [7]) | protein stability index (Saccharomyces cerevisiae [1]; [8]) | protein stability index (Saccharomyces cerevisiae [1]; [9]) | protein stability index (Saccharomyces cerevisiae [2])
GTVRSLLKWRCS | 0.654 ± 0.051 | 0.732 ± 0.0075 | 0.651 ± 0.027 | 0.7431 ± 0.0073 | 0.148 ± 0.016 | 0.192 ± 0.02 | 0.384 ± 0.011 | 0.3259 ± 0.00055
VRMVIFSSVYLT | 0.462 ± 0.002 | 0.509 ± 0.03 | 0.362 ± 0.033 | 0.533 ± 0.0036 | 0.256 ± 0.008 | 0.26 ± 0.027 | 0.448 ± 0.02 | 0.309 ± 0.0098
LSRLIFKVSVLM | 0.57 ± 0.0078 | 0.602 ± 0.0096 | 0.504 ± 0.026 | 0.5999 ± 0.0032 | 0.237 ± 0.032 | 0.231 ± 0.025 | 0.416 ± 0.038 | 0.445 ± 0.015
GVYFIGISRCVC | 0.559 ± 0.006 | 0.642 ± 0.037 | 0.529 ± 0.029 | 0.669 ± 0.0011 | 0.175 ± 0.018 | 0.208 ± 0.025 | 0.36 ± 0.015 | 0.307 ± 0.0065
LNTVALIRIVVS | 0.0601 ± 0.033 | 0.132 ± 0.015 | 0.18 ± 0.021 | 0.234 ± 0.0055 | 0.125 ± 0.015 | 0.137 ± 0.036 | 0.19 ± 0.008 | 0.236 ± 0.006
PFPRCRLIFFFM | 0.5172 ± 0.0045 | 0.7266 ± 0.0031 | 0.549 ± 0.025 | 0.742 ± 0.043 | 0.106 ± 0.0088 | 0.115 ± 0.017 | 0.139 ± 0.019 | 0.171 ± 0.045
RCLHTSVFLIFP | 0.484 ± 0.012 | 0.488 ± 0.038 | 0.476 ± 0.038 | 0.604 ± 0.021 | 0.652 ± 0.026 | 0.488 ± 0.03 | 0.54 ± 0.008 | 0.459 ± 0.03
WFFRCLFLLSLF | 0.457 ± 0.0083 | 0.544 ± 0.028 | 0.517 ± 0.019 | 0.601 ± 0.011 | 0.188 ± 0.015 | 0.178 ± 0.026 | 0.23 ± 0.025 | 0.202 ± 0.034
FLLYVITYRSET | 0.151 ± 0.0098 | 0.304 ± 0.046 | 0.21 ± 0.03 | 0.442 ± 0.047 | 0.161 ± 0.0042 | 0.225 ± 0.025 | 0.378 ± 0.038 | 0.335 ± 0.046
VVFVVGAPPVLC | 0.476 ± 0.018 | 0.481 ± 0.036 | 0.359 ± 0.024 | 0.532 ± 0.013 | 0.323 ± 0.016 | 0.365 ± 0.0082 | 0.5068 ± 0.0019 | 0.4834 ± 0.0027
MRVYLVLWADSC | 0.236 ± 0.034 | 0.345 ± 0.026 | 0.197 ± 0.015 | 0.361 ± 0.017 | 0.19 ± 0.015 | 0.184 ± 0.0039 | 0.337 ± 0.00094 | 0.247 ± 0.058
ALVGEVLWFQLV | 0.684 ± 0.039 | 0.7569 ± 0.006 | 0.651 ± 0.023 | 0.749 ± 0.013 | 0.317 ± 0.0039 | 0.357 ± 0.034 | 0.586 ± 0.029 | 0.471 ± 0.0021
RLSTPFTVNHFI | 0.613 ± 0.031 | 0.732 ± 0.035 | 0.696 ± 0.031 | 0.766 ± 0.0088 | 0.155 ± 0.04 | 0.168 ± 0.044 | 0.374 ± 0.044 | 0.312 ± 0.099
RLRHPPRLSTLC | 0.635 ± 0.025 | 0.743 ± 0.00093 | 0.629 ± 0.029 | 0.73873 ± 0.00026 | 0.306 ± 0.018 | 0.338 ± 0.023 | 0.594 ± 0.069 | 0.463 ± 0.0095
PPPLCSTCIRCC | 0.197 ± 0.035 | 0.206 ± 0.038 | 0.224 ± 0.027 | 0.354 ± 0.0097 | 0.175 ± 0.0021 | 0.205 ± 0.019 | 0.274 ± 0.013 | 0.293 ± 0.0083
WLWFVGCLAAPL | 0.63 ± 0.032 | 0.662 ± 0.066 | 0.529 ± 0.024 | 0.6316 ± 0.001 | 0.523 ± 0.021 | 0.536 ± 0.04 | 0.5957 ± 0.0016 | 0.541 ± 0.07
REGDLLKFKMRP | 0.6854 ± 0.0054 | 0.727 ± 0.008 | 0.637 ± 0.024 | 0.716 ± 0.018 | 0.637 ± 0.037 | 0.639 ± 0.015 | 0.703 ± 0.027 | 0.725 ± 0.067
FCFLLLVSFFFV | 0.234 ± 0.0069 | 0.407 ± 0.21 | 0.252 ± 0.029 | 0.388 ± 0.0052 | 0.211 ± 0.011 | 0.219 ± 0.034 | 0.33 ± 0.014 | 0.31 ± 0.028
SPTIFLPLFLTS | 0.426 ± 0.026 | 0.415 ± 0.014 | 0.397 ± 0.028 | 0.522 ± 0.016 | 0.621 ± 0.016 | 0.4 ± 0.029 | 0.468 ± 0.0067 | 0.376 ± 0.037
